Data reported in the DeepSol protein solubility set.

Test: soluble on expression in E. coli; label from the status in PepcDB or PDB records

Sequence	soluble on expression in E. coli
MRLQTVKHFLEPVLEPLIRKVVKEEVELALGKHLAGIKWICEKETHPLESRNLQLKFLNNLSLPVFTSARIEGDEGQAIRVGLIDPSTGQIFSSGPASSAKLEVFVVEGDFNSVSDWTDEDIRNNIVREREGKKPLLNGNVFAVLNDGIGVMDEISFTDNSSWTRSRKFRLGVRIVDQFDYVKIREAITESFVVRDHRGELYKKHHPPSLFDEVWRLEKIGKDGAFHRRLNLSNINTVKDFLTHFHLNSSKLRQVLGTGMSSKMWEITLDHARSCVLDSSVHVYQAPGFQKKTAVVFNVVAQVLGLLVDFQYIPAEKLSEIEKALILSVYIFDLAQAEVMVIDALSHLNEVISYDDEVSMMRNVLNAPASQGSVAGIDYSGLSLTSLDGYGFVSSLHNTAECSGKHSDDVDMEVTPHGLYEDYDNLWNCSHILGLEEPQSELQSALDDFMSQKNASVGGKAHSKRWTKLFSVSRWLSVFKYVKLGKI	soluble
MGDASTQLSSYVKQVQTGHKPSTKEIVRFSKLFEDQLALEHLDRPQLVALCKLLELQTFGTNNLLRFQLLMKLKSIKADDEIIAKEGVTALSVSELQAACRARGMRSLGLTEEQLRQQLTEWQDLHLKENVPPSLLLLSRTFYLIDVKPKPIEIPLSGEAPKTDILVELPTFTESKENMVDLAPQLKGTKDEDFIQPPPVTSSPITPSTPISLPKGPITSSEEPTLQAKSQMTAQNSKASSKGA	soluble
MEKKKLTTAAGAPVVDNNNVITAGPRGPMLLQDVWFLEKLAHFDREVIPERRMFAKGSGAFGTFTVTHDITKYTRAKIFSEVGKKTEMFARFSTVAGERGAADAERDIRGFALKFYTEEGNWDMVGNNTPVFYLRDPLKFPDLNHIVKRDPRTNMRNMAYKWDFFSHLPESLHQLTIDMSDRGLPLSYRFVHGFGSHTYSFINKDNERFWVKFHFRCQQGIKNLMDDEAEALVGKDRESSQRDLFEAIERGDYPRWKLQIQIMPEKEASTVPYNPFDLTKVWPHADYPLMDVGYFELNRNPDNYFSDVEQAAFSPANIVPGISFSPDKMLQGRLFSYGDAHRYRLGVNHHQIPVNAPKCPFHNYHRDGAMRVDGNSGNGITYEPNSGGVFQEQPDFKEPPLSIEGAADHWNHREDEDYFSQPRALYELLSDDEHQRMFARIAGELSQASKETQQRQIDLFTKVHPEYGAGVEKAIKVLEGKDAK	soluble
MEHWYCTNMVGVPVGLIGSTAFNRCLRRITIHGTRETHPGLFRLLAACEYPATASEVFEHYMELEFGLAPGAHEPTQARYPTSYLDLLRGWGVESDCPKAAVLKGWVESRFGLVPTFHKQRLGLFPSSAWATYLQEKTDVRFHNNCIFQQFDLLYEYCQWSIRRFKTPGPRFVRLWRGTNDVEQQLVEGDARQRLCTVRLNNLVSFSDSKERAEEFGDWVLETEVPTVKLLFFPGLLQRQVLGYEGEFLVIGGNYKVRAYHGWFLEHHHHHH	soluble
MGSDKIHHHHHHMPELATREFWKDLQPIPDCFKPDAKPEVYLRNAPTEDERLYVPFTETVKSRPLWISPSENRWCDILMATSAGLVNRHYHPHEVFAYTISGKWGYLEHDWTATAGDFVYETPGEGHTLVAYEHEQPMRAFFIVKGPLVWLDEKGNADGIFDVHDYIAMCREHYDKIGVGAAYIDSLFR	not soluble
MVVEVDSMPAASSVKKPFGLRSKMGKWCCRCFPCYRESGKSNVGTSGDHDDSAMKTLRSKMGKWCHHCFPCCRGSGKSNVGASGDHDDSAMKTLRNKMGKWCCHCFPCCRGSGKSKVGAWGDYDDSAFMEPRYHVRGEDLDKLHRAAWWGKVPRKDLIVMLRDTDVNKKDKQKRTALHLASANGNSEVVKLLLDRRCQLNVLDNKKRTALIKVCSSQLYQHEAVQCQEDECALMLLEHGTDPNIPDEYGNTTLHYAIYNEDKLMAKALLLYGADIESKNKHGLTPLLLGVHEQKQQVVKFLIKKKANLNALDRYGRTALILAVCCGSASIVSLLLEQNIDVSSQDLSGQTAREYAVSSHHHVICQLLSDYKEKQMLKISSENSNPENVSRTRNK	not soluble
MYKDFANFIRTNKADLLNNWMNEMEKQSDQLINDIAKEAMYEETSKEFVDLIVSNVTENGSKFNEKLDDFAEKVVHLGWPIHFVTTGLRVFGLLVYTAMRDEDLFLKREEKPEDDAYYRFETWLSSMYNKVVTAYADTWEKTVSIQKSALQELSAPLLPIFEKISVMPLIGTIDTERAKLIIENLLIGVVKNRSEVVLIDITGVPVVDTMVAHHIIQASEAVRLVGCQAMLVGIRPEIAQTIVNLGIELDQIITTNTMKKGMERALALTNREIVEKEG	not soluble
MGSDKIHHHHHHMDIIREITPLSEKDCFYIVDRRKTEFTYPIHCHSEYELNFIEHAPGVRRVVGDSAEVIGEYELVLITGKELEHVWEQNACKSPLIHEITIQFSPDLFGKNLLEKNQFNSIRKMLEKAQCGISFPMSSILKVYHLLEKLVSEEQSFYAVINFLTILYELSVEENYKVLASSSFAKITDIHSESRRIQKVQNYINERYQQDIRLNQLAELVGMAPSAFSRFFKLRTGKTLSDYITDIRIGYAARMLVDTQRSIAEICYDCGFNNLSNFNRIFKKKKNCSPKEFRDNYKKTKIIV	not soluble
MKNIGVNINSCKDPDGTIRKYVEKVIKEEKKDVQVKFYDELNYFDEVCKTKPDFFIAFGGDGTILNAARNLVSCGIPIFSVNIGHLGFLSSIEFKDFKDAIHKIFKGEYFFQERTMLKCSFIKGNSKKVFYSLNEVVLYKGNMAKILKYNIDVDDKFYMGFKSDGIIISTPTGSTAYNLSAGGPIIYPNLDLISLTPICPQGPYAGTIVLDGKSNITISGIDANENVFITVDGRQPVDVKGVSFIEISKLNYKCKLLKLKDYNYFEVLRKKIILRTEECEGDKYMAGDPLEHHHHHH	soluble
MAHHHHHHMHNSVPASNTCSPFREETVSKRGKRSRGTGGDDKITRGTCSQPFSVITLPPGKLLEWLVCSPCRVYDVNLPRSRNNDNNISSLQCAVLPNFFVEYGGRSYSCVAKVCKPQLRKVLLRALAAVRQEMGSVDDIPHDSLLVVAVSPINAFSSECIHDASRTAMPRAREGCKIVGLCVARELSAPHRMHCESNWSHEKSEASGVGAAVQEGLGDCWEEDATRVGGTNNVRKAFCGVQLVWVADCYRRHGVAKVLVDTARRHISYGFEVPVERVAFSEPTSLGKLFAKSYSGRPDFLI	soluble
MKDVTPARADYPWDGERDVIVIGSGCAGLSAALLAAKKSLDVVLCEKSSQVGGTTASAGGVMWIPNSREARAAGVDDSSEQVRVYLRALMGAYYRADLVDPYLKSAPLAAQAIQEDTQVRLKLMPAMSDYHASLPGGKAGGRSLEPERFDGRRLGADFELVRAPIKRLMLLGGLYIDKRRIDEFLNPFGSFRNFIGVIRTLARYAIDRTRFSRGTDIGAGNAFVASALLSLRERGVPIWLNSPMVSLVRNPQGGVAGVAICRDGKLQRIRARKGVILAAGGFPRNAALLEELAGGFPHDQSVGYEGNVGDTLQAARQAGAAIDADLASPCWWTPTSRNKEADGSMSTVLYGYLDRSRPGMIAVNAAGKRFVNDSDSYHDIVYAMFKDGVTPDSRFYLICDRRFVWKRGLGNLIKPYCLSLGRYVRSGYISTGRSIRELAAAIGIDPDALEVTVTRHNGFCETGVDLDFGKGGNPYNRMFGDPRVKPNPNLLAIRHAPFFALRIYPGTLGTILGLKATADAQVVGQDGEAIPGLYACGNDMSSVFRGFYPGAGATLGPGLVFAYRAIEHLARSSGGSAAQSALEHHHHHH	not soluble
MVVQSDGSPEAASYTLIHFWAAYDGESRAGNVRWSRYFAKRPDSRVRYVGVSMDKNLSVFTNTLAFDQIDLSAQRLVENSKRDQMLNIYGLKIRFHSYLVDAHGIIRAVDPNPDQLETIL	not soluble
MAQVGETEVVAGNVRDIVNRLSRDMTNRNPFTVHQQVERRAPPPQPQAQIYVATYAYSSKQDDELSFVVGDLIELISDVEDGWSKGKLKSTGAVGMFPTNFVTLKPTPSTSAAAVAPAASASTSAGSAARTPAKSIGSEVVMRSEPKAIDRTPSTIISDPAPVLKALETKFSSTFASSAASASTDAETTKTKEMARVKFVYNPQHDDELALKEIDMLINITNKNCGDAGWFEGELHGKKGLFPDNFVELVQVPLGTESGARHGSISRQATLTFVSHKPPPVNPPQPAVPPKPAKISVVRRGFIEKIEKKMFHFISGNN	soluble
EAIGASVIPMSAGNTEKQIMIMQDYKTTALVCTPSYAITIADRMEKMGVDPKSLSLKVGLFGAEPWSEAMRKEIENRLFVSATDNYGLSEIIGPGVAGDCEYKCGMHIS	not soluble
MLDTQTIAIVKSTIPLLAATGPKLTAHFYERMFKHHPELKNIFNMSNQSSGDQREALFNAICAYATNIENLAALLPTVERIAQKHTSLNIQPEHYPIVGEHLIATLDELFSPGQAVLDAWAKAYGVLADVFIQRESQIYQQSETETGGWRTLRRFRIIKKEQQSEVICSFVLAPEDGGQVLHYKPGQYLGIYIEHESLEFQEIRQYSLTTAPNGKTYRIAVKREEQGTVSNLLHRELNEGDIVRIAPPRGDFFLDVSPDTPVALISAGVGQTPMLSMLNTLYSQQHAAPVHWLHAAENGRVHAFADEVSAIAAKMPNLSRHVWYREPDLQDKHGEDYHSQGLMDLSSYQWLADDPKRHYYFCGPLPFMQFIGRQLLAQGIAPEQIHYECFGPHKVI	not soluble
SDSFWEPGNYKRTTKRIEDGYKLCNDLQQLIQERADIEKGYAKSLRTWSKKWGELIEKGPEYGTTEAAWKGVLTESERISDVHMKIKDNLCNDVNSQIKTWQKENYHHTLMQIKERKDLEDLFKKAQKPWAKLLAKVEKAKADYHSACKTERSATNQERNANADSSLSPDQVKKMHDRVQKTKDQVQKCREKYEQAIAEITKYNSVYIEDMTSVFEKCQTFEKTRLQFFKEILFNVHSCLDLTKVQSLPQIYEEFSHTINNADQQKDLKWWSNNHGINMAMNWPSFVEYT	soluble
MSLVKIKIFVNELLTDVEENTTAYKVRDSYNNKCDVLVLNGYPIKTDMTLCENDKLTLIQKGVKPSLDELESLLIARHTPNIHNKLKKGKVAILGLGGLGSNIAISLARIGVGELLLIDYDVVEPSNLNRQQYFIDDIGKLKTDAMIENIKKINPFIKLNKRDIFLNKNNMDTIKDSDLIIEAFDDASCKAQVCNYVLINLKDKYLIASSGMAGYYDSNIITTKKIKDRFYICGDFVNEAKFGEGLMAPRVAICANHMANLATQILIDMEGHHHHHH	soluble
MSLKISIVTSTNVYADIAKNIVGKYGSAKAIIKNSATDPHDFEPTTQDAKELSSTNIIVANGLGYDSWMNKLASSVDKKPVLVGEELMKLKKGANPHIWYSLSMPTEYVDYLVKRLSKIDSKHKAYFEANGKKYLAKINQVKALAKNSKKTDKMVFVSEPVFDYALAEAGYKIGDKDFEKAVENNTDPSPKTINRMTNDIKNKKIAFFVNNTQSSSSTVKTFVKLAKQNNIPVLNVRETIPNHTTYLNWMKENYQNLANISKEGHHHHHH	soluble
MEHLFGKWLPDLPAAISDGISLPMVRLLHTRSLTAALRALPHTFSVELLKLGELETECGGRLVREVLLKLDRIPVVEARSECRIGSAFWQNILDCGTRPLGERLFQADLEGARSAFEFAVAGEGCGRYFAARRSRFSRHGEEMLLTEYFLPELKRFIG	not soluble
MRIVSLCPSNTELLAYLGRLDDVAAVDDSSDWPPEVKQLPKVGPDLHIDMDQVEALKPDLVVASLSVPGMERNVKELKRRGLPHLVLAPNSLDDIANDLLRLGEALGETKKAAELVRRYHDVLDWHRERAASAEPARLYWEWWPRPVFTPGGANWLSELSELAGGRNIFSDIPQASVQTEWDDVLARNPSHILLVWVGVQTKKMSPKAVTARPNAQQAEAVRTGNIHILEESLYCRPSPRLLVGLKKLAPLLHPALFPPADDSDPLLGG	not soluble
